Measured values reported in patent US20190284266A1 (H LUNDBECK A S, published 2019).

B1: IPN002 (antibody, V domains shown)
VH: EVHLVESGGALVKPGGSLKLSCAASGFSFSKYGMSWVRQTPDKRLEWVATISSSGSRTYYPDSVKGQFTISRDNAKNTLYLQMSSLKSEDTAMYYCSISWDGAMDYWGQGTSVTVSS
VL: DVLMTQTPLSLPVSLGDQASISCKSSQSIVHSNGNTYLEWYLQKPGQSPKLLVYKVSNRFSGVPDRFSGSGSGTDFTLKISRVEAEDLGTYYCFQGSLVPWAFGGGTKLEIK
B2: HJ8.5 (antibody, V domains shown)
VH: EVKVEESGGGLVQPGGSMKLSCVVSGFTFSNYWVNWVRQSPEKGLEWVAQIRLKSDNYATHYEESVKGRFTISRDDSKSSVYLQMNNLRAEDSGIYYCTNWEDYWGQGTTLTVSS
VL: DIVLTQSPASLAVSLGQRATISCRASQSVSTSRYSYIHWYQQKPGQPPKLLIKYASNLESGVPARFSGSGSGTDFTLNIHPLEEEDAATYYCHHSWEIPLTFGAGTKLELK

Target: T1, hyperphosphorylated (pathological) tau from human Alzheimer's disease brain, phosphorylated at serine 396 (human, UniProt P10636 2-758, phosphoserine at 396; hyperphosphorylated at further sites that are not listed)
T1 construct: Brain-derived material (sections, S1, S1p and sarkosyl-insoluble P3 fractions, PBS extracts), a mixture of isoforms and aggregates; also called AD-P3; AD-P3 antigens
T1 sequence (P10636 other isoform, or with tags, fused parts or gaps limits assumed): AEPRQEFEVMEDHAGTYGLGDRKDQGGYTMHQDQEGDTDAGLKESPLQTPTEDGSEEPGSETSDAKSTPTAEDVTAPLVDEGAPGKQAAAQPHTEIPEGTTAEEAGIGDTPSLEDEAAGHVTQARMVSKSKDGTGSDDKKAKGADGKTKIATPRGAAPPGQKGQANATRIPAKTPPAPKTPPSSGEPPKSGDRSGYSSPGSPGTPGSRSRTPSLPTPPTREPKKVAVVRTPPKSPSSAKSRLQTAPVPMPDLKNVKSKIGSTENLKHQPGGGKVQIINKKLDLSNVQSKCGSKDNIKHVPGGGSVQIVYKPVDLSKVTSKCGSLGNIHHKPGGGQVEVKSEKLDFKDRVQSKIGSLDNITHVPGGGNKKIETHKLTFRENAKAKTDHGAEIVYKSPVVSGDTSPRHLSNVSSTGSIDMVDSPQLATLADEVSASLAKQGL
Experiment: binding of pathological versus non-pathological tau, brain material (Table 5)

Binder | AD/ctrl (ratio of binding to AD brain tau over control brain tau) [fold]
B1 | 3
B2 | 3
